The record followed here is paper PMC5731819 (2017).

The experiment concerns the target E. coli DNA sliding clamp β (Escherichia coli (strain K12), UniProt P0A988, maleimide-Atto647N on a single cysteine residue (position not given)). Briefly: CoSMoS single-molecule TIRF co-localization (dwell time 14.2 s on clamp-DNA); β clamp loaded by the γ clamp loader (ATP) onto end-blocked primer-template DNA; Pol IIIcore present as competitor.

Sequence of E. coli DNA sliding clamp β (P0A988 whole entry): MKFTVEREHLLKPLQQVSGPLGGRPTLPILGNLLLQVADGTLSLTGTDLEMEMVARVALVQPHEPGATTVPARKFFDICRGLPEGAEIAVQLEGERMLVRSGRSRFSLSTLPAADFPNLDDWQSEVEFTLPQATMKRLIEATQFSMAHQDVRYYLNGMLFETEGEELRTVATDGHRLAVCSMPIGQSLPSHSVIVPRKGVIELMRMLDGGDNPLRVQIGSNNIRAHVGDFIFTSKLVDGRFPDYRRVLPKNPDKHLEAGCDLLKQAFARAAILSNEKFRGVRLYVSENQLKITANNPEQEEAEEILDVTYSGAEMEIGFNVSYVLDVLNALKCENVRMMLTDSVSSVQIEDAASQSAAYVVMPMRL

B1: E. coli translesion DNA polymerase Pol IV, wild type (protein)
chain: MRKIIHVDMDCFFAAVEMRDNPALRDIPIAIGGSRERRGVISTANYPARKFGVRSAMPTGMALKLCPHLTLLPGRFDAYKEASNHIREIFSRYTSRIEPLSLDEAYLDVTDSVHCHGSATLIAQEIRQTIFNELQLTASAGVAPVKFLAKIASDMNKPNGQFVITPAEVPAFLQTLPLAKIPGVGKVSAAKLEAMGLRTCGDVQKCDLVMLLKRFGKFGRILWERSQGIDERDVNSERLRKSVGVERTMAEDIHHWSECEAIIERLYPELERRLAKVKPDLLIARQGVKLKFDDFQQTTQEHVWPRLNKADLIATARKTWDERRGGRGVRLVGLHVTLLDPQMERQLVLGL
modifications: Atto 565 (CoA-linked) conjugated by Sfp to the N-terminal Ybbr tag
Take B1: the binding result was “binds”.
